Reference: patent US20260232802A1 (published 2026)

T1: Human Telomerase Reverse Transcriptase (hTERT) peptide on HLA-A*03:01 (human)
T1 peptide: SVLNYERARR

T2: Survivin (BIRC5), modified form of the peptide peptide on HLA-A*02:01 (human)
T2 peptide: LMLGEFLKL

T3: Survivin (BIRC5) peptide on HLA-A*02:01 (human)
T3 peptide: LTLGEFLKL

B1: hTERT #3 (TCR, V domains shown)
Valpha: KDQVFQPSTVASSEGAVVEIFCNHSVSNAYNFFWYLHFPGCAPRLLVKGSKPSQQGRYNMTYERFSSSLLILQVREADAAVYYCAVETGGGATNKLIFGTGTLLAVQP
Vbeta: NAGVTQTPKFQVLKTGQSMTLQCAQDMNHNSMYWYRQDPGMGLRLIYYSASEGTTDKGEVPNGYNVSRLNKREFSLRLESAAPSQTSVYFCASSEFWLTQETQYFGPGTRLLVL
B2: hTERT #4 (TCR, V domains shown)
Valpha: GIQVEQSPPDLILQEGANSTLRCNFSDSVNNLQWFHQNPWGQLINLFYIPSGTKQNGRLSATTVATERYSLLYISSSQTTDSGVYFCAVSHGRGGATNKLIFGTGTLLAVQP
Vbeta: NAGVTQTPKFQVLKTGQSMTLQCAQDMNHNSMYWYRQDPGMGLRLIYYSASEGTTDKGEVPNGYNVSRLNKREFSLRLESAAPSQTSVYFCASDRVLGYEQYFGPGTRLTVT
B3: hTERT #1 (TCR, V domains shown)
Valpha: GENVEQHPSTLSVQEGDSAVIKCTYSDSASNYFPWYKQELGKRPQLIIDIRSNVGEKKDQRIAVTLNKTAKHFSLHITETQPEDSAVYFCADWVDMRFGAGTRLTVKP
Vbeta: GAVVSQHPSWVICKSGTSVKIECRSLDFQATTMFWYRQFPKQSLMLMATSNEGSKATYEQGVEKDKFLINHASLTLSTLTVTSAHPEDSSFYICSAPLDRGSNQPQHFGDGTRLSIL
B4: hTERT #2 (TCR, V domains shown)
Valpha: GQNIDQPTEMTATEGAIVQINCTYQTSGFNGLFWYQQHAGEAPTFLSYNVLDGLEEKGRFSSFLSRSKGYSYLLLKELQMKDSASYLCAVSRPNSGYSTLTFGKGTMLLVSP
Vbeta: AAGVIQSPRHLIKEKRETATLKCYPIPRHDTVYWYQQGPGQDPQFLISFYEKMQSDKGSIPDRFSAQQFSDYHSELNMSSLELGDSALYFCASSVRTPSGQETQYFGPGTRLLVL
B5: Survivin TCR (TCR, V domains shown)
Valpha: SQKIEQNSEALNIQEGKTATLTCNYTNYSPAYLQWYRQDPGRGPVFLLLIRENEKEKRKERLKVTFDTTLKQSLFHITASQPADSATYLCALDRMDSSYKLIFGSGTRLLVRP
Vbeta: NAGVTQTPKFQVLKTGQSMTLQCAQDMNHEYMSWYRQDPGMGLRLIHYSVGAGITDQGEVPNGYNVSRSTTEDFPLRLLSAAPSQTSVYFCASSYDQDGEAFFGQGTRLTVV

Experiments:
[1] = molecular target: T1, Human Telomerase Reverse Transcriptase …; test: multimer staining
[2] = molecular target: T2, Survivin (BIRC5), modified form of the …; test: multimer staining
[3] = molecular target: T3, Survivin (BIRC5) peptide on HLA-A*02:01; test: killing
Method: (A) Survivin-specific transgenic T cells were co-cultured with Survivin⁺ primary AML blasts expressing (target blasts) or not (control blasts) the HLA-A0201⁺ allele in 1:1 effector to target ratio. After 24 hours, elimination index was calculated as [1-(number of alive blasts cultured with edited T cells/number of alive blasts alone)]. (B) Survivin-specific transgenic T cells were co-cultured with Survivin⁺ primary AML blasts expressing (target blasts, upper) or not (control blasts, lower) the HLA-A0201⁺ allele in 1:1 effector to target ratio. Killing is represented as area covered (μm²) by cells undergoing apoptosis (caspase 3/7 activation) overtime. […] Data are presented as means±SD. ****P<0.0001, by Student t-test (A) or two-way ANOVA (B).
For killing assay cells were plated and kept at 37° C. and 5% CO2 after the addition of anti-CD28 monoclonal antibodies (1 μg/ml; BD biosciences) for 72 hours in case of co-culture with cell lines, and for 24 hours for co-cultures with primary AML blasts. […] Viable target cells were counted using counting beads (Flow-count fluorospheres, Beckman Coulter), according to manufacturer's instructions. Elimination index was calculated according to the formula: [1-(number of alive target cells in culture with effector T cells/number of alive target cells in control culture)]. […] Data were analyzed by FlowJo software version 10 (BD).

Binder | binding result [1] | binding result [2] | binding result [3]
B1 | recognises |  | 
B2 | recognises |  | 
B3 | recognises |  | 
B4 | recognises |  | 
B5 |  | recognises | recognises
